In this assay the target is NyxB (His tag cleaved, for crystallisation, SEC-MALS and SAXS) (Brucella abortus 2308) (UniProt Q2YPZ9). The experiment in a line: SEC-MALS. Background: In gel filtration, larger molecules generally elute earlier.

This note sets out measurements from article PMC9823007.

The term stoichiometry N denotes the number of molecules, sites or subunits per partner or assembly. The substance “NyxB (His tag cleaved, for crystallisation, SEC-MALS and SAXS) (from UniProt Q2YPZ9 1-134) (natural protein)” yielded a stoichiometry N of 2.
